Experimental data from the nanobody polyreactivity screen of Harvey et al. (2022).

experiment: yeast display, Sf9 membrane polyspecificity reagent, FACS + sequencing; frameworks hold sequencing errors
How it was run: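 Nanobodies came from a synthetic yeast display library in Saccharomyces cerevisiae BJ5465, induced with galactose for 36–48 hours and stained for 1 hour at 4 °C with 10% biotinylated, detergent-solubilized Sf9 membrane reagent. Cells were enriched on streptavidin microbeads and then FACS-sorted, with low and high (top ~1%) gates set on anti-HA fluorescence for expression and streptavidin fluorescence for reagent binding. Each polyreactivity label reflects the gate a clone came from. Genes were amplified by colony PCR, sequenced by MiSeq 2 × 250 and filtered by CDR length.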

Sequence	polyreactivity (PSR sort gate)
QVQLVESGGGLVQAGGSLRLSCAASGSLSYTYGMGCYRQAPGKERELVAAISTSGGNTYYADSVKGRFTISRDNAKNSVYLQMNSLKPEDTAVYYCSAYYGRGSIKRYYYWGQGTQVTVSS	high polyreactivity
QVQLVESGGGLVQAGGSLRLSCAASGSMFANNAMGWYRQAPGKERELVAAITSGGNTDNADSVKGRFTISRDNAKYTVYLQMNSLKPEDTAVYYCAAERPPYGYLVVGYVSTQYYYWGQGTQVTVSS	low polyreactivity
QVQLVESGGGLVQAGGSLRLSCAASGSMFIWNAMGWYRQAPGKARELVAAISFTGTSTYYADSVKGRCTSSRDNAKNTVYLQMNSLKPEDTAVYYCNTDYRGSQYDYWVQGTQVTVSS	low polyreactivity
QVQLVESGGGLVQAGGSLRLSCAASGSMFVRYAMGWYRQAPGKERELVAAISSDGNTYYADSVKGRFTISRDNAKNTVYLPRNSLKPEDTAVYYCAAKTRSRYYWGQGTQVTVSS	high polyreactivity
QVQLVESGGGLVQAGGSLRLSCAASGSMFYFYAMGWYRQAPGKERELVAAISWCDGDTYYADSVKGRFTISRDNAKNTVYLQMNSLKPEDSAVYYCAAEGLTRYYQYDYWGQGTQVTVSS	high polyreactivity
QVQLVESGGGLVQAGGSLRLSCAASGSMIAFYVMGLYRQAPGKERELVAAINRGGTNTYYADSVKGRFTISRDNAKNTVYLQMNSLKPEDTAVYYCAADGDRSAQRYTGYYYWGQGTQVTVSS	high polyreactivity
QVQLVESGGGLVQAGGSLRLSCAASGSNFDLNAMGWYRQAPGKERELVAAISSGGGTYYADSVKGRFTISRDNAKTPVYLQMNSLKPEDTAVYYCNRVTRWTYNYWGQGTQVTVSS	high polyreactivity
QVQLVESGGGLVQAGGSLRLSCAASGSNFDYNTMGWYRQAPGKEREFVAAISSSGGGTSYADSVKGRFTISRDNAKNTVYLQMNSLKPEDTAVYYCAALIKLTPYQRQYWKYRAYYYGGQGTQVTVSS	high polyreactivity
QVQLVESGGGLVQAGGSLRLSCAASGSNFDYYAMGWYRQAPGKERELVAAISSTDGSTFYADSVKGRFTISRDNAKNTVYLQMNSLKPEDTAVYYCAVVGYYYPWPNGYDYWGQGTQVTVSS	low polyreactivity
QVQLVESGGGLVQAGGSLRLSCAASGSNFFTNAMGGYRQAPGKERELVAVITKRGGSTYYADSVKGRFTISRDNAKNTVYIQMNSLKPEDTAVYYCAADARQWRYYYWGQGSQVTVSS	high polyreactivity
QVQLVESGGGLVQAGGSLRLSCAASGSNFGDNPMGWYRQAPGKERELVAAISSSGDSTYYADSVKGRFTISRDNAKNTVYLQMNSLKPEDTAVYYCADDRGSTAGSVTYTPGNYWGQGTQVTVSS	low polyreactivity
QVQLVESGGGLVQAGGSLRLSCAASGSNFLIYAMGSYSQAPGKERELVAAITFSGCSTYADSVKGRFTISRENAKNTVYLQMNSLKPEDTAVYYCAADSTKYAYDYWGQGTQVTVSS	low polyreactivity
QVQLVESGGGLVQAGGSLRLSCAASGSNFLPNAMGWYRQAPGKERELVAAISWSDDSTYYADSVKGRFTISRDNAKNTVDLQMNSLNPEDTAVYYCAADVGLWYDYWGQGTQVTVSS	high polyreactivity
QVQLVESGGGLVQAGGSLRLSCAASGSNFRVYAMGWYRQAPGKESELVAAIDSGTSTTYADSVKGRFTISRDNAKNTVYLQMNSLKPEDTAVYYCAADGWLWSFTGDGWWFDYWGQGTQVTVSS	low polyreactivity
QVQLVESGGGLVQAGGSLRLSCAASGSNFSDYAMGWYRQAPGKEREFVATITWSGTSTYYADSVKGRFTISRDNAKNTVYLQMNSLKAEDTAVYYCAAELLFWLGLVPGTIFDEFDYWGQGTQVTVSS	low polyreactivity
QVQLVESGGGLVQAGGSLRLSCAASGSNFSRYAMGWYRQAPGKERDLVAAITSTGDSTSYADSVKGRFTISRDNAKNTVYVQMNSLKPEDTAVYYCAIVYVYRYVIPYDYWGQGTQVTVSS	low polyreactivity
QVQLVESGGGLVQAGGSLRLSCAASGSNFTNAMGWYRQAPGKERELVASIDANAGDTHYADSVKGRFTISRDNAKNTVYLQLNSLKPEDTAVYYCNADVTERLWTGEDDYWGQGTQVTVSS	low polyreactivity
QVQLVESGGGLVQAGGSLRLSCAASGSNFTWYAMGWYRQAPGKERELVADIDWSGGSTYYADSVKGRFTISRDNAKNTVYLQMNSLKPEDTAVYYCNAVFLFYEYWGQGTQVTVSS	low polyreactivity
QVQLVESGGGLVQAGGSLRLSCAASGSNFTYNRMGWYRQAPGKEREFVDAITWTGGSTYAYSVKGRFTISRDNAKNTVYLQINSLKPEDTAVYYCAAVRRISWYTPVITRRYYYWGQGTQVTVSS	high polyreactivity
QVQLVESGGGLVQAGGSLRLSCAASGSNFVYNAMGWYRQAPGKERELVAVINKSGDTTYYADSVKGRFTISRDNAKNTVYLQMNSLKPEDTAVYYCNASGEVLAAVVTYDYWGQGTQVTVSS	low polyreactivity
QVQLVESGGGLVQAGGSLRLSCAASGSNFWRKAMGWYRQAPGKERELVAAITCGGSTYYADSVKGRCTISRDNAKNTVYLQMNSLKTEVTAVYYCAAGYSYRYGYWGQGTQVTVSS	low polyreactivity

Sequence	polyreactivity (PSR sort gate)
QVQLVESGGGLVQAGGSLRLSCAASGSNFYDNAMGWYRQAPGKERELLAAITTSGDSTYYADSVKGPFTISRDNAKNTVYLQMNSLKPEDTAVYYCAARPRVRSSYRYYYWGQGTQVTVSS	high polyreactivity
QVQLVESGGGLVQAGGSLRLSCAASGSNFYSYAMGWYRQAPGKERELVAAITGDGGSTYYADSVKGRFTISRDNAKNTVYLQRNSLKPEDTAVYYCAVPHTYRRYDYWGQGTQVTVSS	low polyreactivity
QVQLVESGGGLVQAGGSLRLSCAASGSNIKYYAMGWYRQAPGKERELVARITSDGGSTFYADSVKGRFTISRDNAKNTVYLQMNSLKPEDTAVYYCNTAYAFRHCWFYPMDYWGQGTQVTVSS	high polyreactivity
QVQLVESGGGLVQAGGSLRLSCAASGSNILQNAMGWYRQAPGKERELVAAITNGGSTNYADSVKGRFTISRDNAKNTVYLQMNSLKPDDTAVYYCAAYPLYTGSYDRGGYWGQGTQVTVSS	low polyreactivity
QVQLVESGGGLVQAGGSLRLSCAASGSNISQNAMGWYRQAPGKERELVASITYSGGSTYYADSVKGRFTISRDNAKNTVYLQMNSLKPEVTAVYYCAADVRYSSRFYYWGQGTQVTVSS	high polyreactivity
QVQLVESGGGLVQAGGSLRLSCAASGSNIYTYAMGWYRHAPGKERELVAAISSGGSTTYADSVKGRFTISRDNAKNTVYLEMISLKPEDTAVYYCAADGASRALYDYWGQGTQVTVSS	high polyreactivity
QVQLVESGGGLVQAGGSLRLSCAASGSNLATYTMGWYRQEPGKERELVAAISFGGSTYYADSVKGRFTISRDNAKNTDYLQMNSLKPEDTAVYYCAVYGDSYWGAYYYSDGYWGQGTQVTVSS	low polyreactivity
QVQLVESGGGLVQAGGSLRLSCAASGSNLGLYAMGWYRQAPGKERELVAAISSGGSTYYADSVKGRFTISRDNAKNTVYLQMNSLKPEDTAVYYCAADLSLSRVVFGDYDYWGQGTQVTVSS	low polyreactivity
QVQLVESGGGLVQAGGSLRLSCAASGSNSRYAMGWYRHARGKERELVRAITRSGGSTHYADSVKGRFTISRDNAMNTVYLQMNSLKPEDTAVYYCATRYYRGVIRYPYDSWGQGTQVTLSS	high polyreactivity
QVQLVESGGGLVQAGGSLRLSCAASGSNVYYAMGWYRQAPVKERELVAAINTSGGSTYYADSVKGRFTISRDNAKNTVYLQMNSLKPEDTAVYYCAAVYVGYITGFKRGYWGQGTQVTVSS	high polyreactivity
QVQLVESGGGLVQAGGSLRLSCAASGSNWSYAMGWYSQAPGKESVLVATISRRGGSTYYADSVKGRFTISRDNAKNTVYLQMNSLKPEDTAVYYCAAAESASSFRFDYWGQGTQETVSS	high polyreactivity
QVQLVESGGGLVQAGGSLRLSCAASGSNYYWYAMVWSRQAPGKEMELVADITTSDGRTYYADSVKGRFTISRDNAKNTVYFLMNSLKPEDTAVYYCAADPFSGYGFQYYRGLYYWGQGTQVSVSS	low polyreactivity
QVQLVESGGGLVQAGGSLRLSCAASGSPFRPYVMGWSRQAPGKERELVAAISWRGGTTYYADSVKGRFTISRDNAKNTDYLQIHSLKPEDTAVYYCAARGDQGVPVARRYDYWGQGTQVTVSS	high polyreactivity
QVQLVESGGGLVQAGGSLRLSCAASGSPFRSYAMGWYRQAPGKERELVAAISISGGRTYYADSVKGRFTISRDNAKNTVYLQMNSLKPEDTAVYYCAADRRTDGHDYWGQGTQVTVSS	high polyreactivity
QVQLVESGGGLVQAGGSLRLSCAASGSSFNYNTMGWYRQAPGKERELVADISWSGGSTYYADSVKGRFTISRDNAKNTVYLQMNSLKPEDTAVYYCAADFGLFPYVGTGYYYWGQGTQVTVSS	low polyreactivity
QVQLVESGGGLVQAGGSLRLSCAASGSSFTNYGMGWYRQAPGKERELVAAISESGDTTYYADSVKGRFTISRDNAKNTVYLQMNSLKPEDTAVYYCNRAHGRSRYSRDYDSWGQGTQVTVSS	low polyreactivity
QVQLVESGGGLVQAGGSLRLSCAASGSSFYTNAMGWYTQAPGKERELVAAISSSGDSTYYADSVKGRFTISRDNANNTVYLQMNSLKPEDTGVYYCNADRRSYNGFRYYYWGQGTQVTVSS	low polyreactivity
QVQLVESGGGLVQAGGSLRLSCAASGSSFYVNAMGWYRQAPGKEREFVAAITWNSGSTYYADSVKGRFTISRDNEKNTVYLQMNSLKPEDTAVYYCAAVLSGRVYGYDYWGQGTQVTVSS	low polyreactivity
QVQLVESGGGLVQAGGSLRLSCAASGSSLGLNAMGWYRQAPGKERELVAGISWRGGSTYYADSVKGRFTISRDNAKNTVYLQMNSLKPEDTAVYYCNAVRFYGRWRGYDYWGQGTQVTVSS	high polyreactivity
QVQLVESGGGLVQAGGSLRLSCAASGSSRIYDMGWYRQAPGKERVWVAAISSTGSTYYADSEKGRYTISRDNAKNTGYLQMNSLKPEETADYYCAAARYYRYDSYSSWGQGTQVTVSS	high polyreactivity
